Like-named read-outs stand apart in the source and are kept apart here.
B1: IL-7Rα extracellular domain (domain or fragment, UniProt P16872 21-239, looked up)
chain: ESGNAQDGDLEDADADDHSFWCHSQLEVDGSQHLLTCAFNDSDINTANLEFQICGALLRVKCLTLNKLQDIYFIKTSEFLLIGSSNICVKLGQKNLTCKNMAINTIVKAEAPSDLKVVYRKEANDFLVTFNAPHLKKKYLKKVKHDVAYRPARGESNWTHVSLFHTRTTIPQRKLRPKAMYEIKVRSIPHNDYFKGFWSEWSPSSTFETPEPKNQGGWD
B2: IL-2Rβ extracellular domain (domain or fragment, UniProt P16297 27-240, looked up)
chain: AVKNCSHLECFYNSRANVSCMWSHEEALNVTTCHVHAKSNLRHWNKTCELTLVRQASWACNLILGSFPESQSLTSVDLLDINVVCWEEKGWRRVKTCDFHPFDNLRLVAPHSLQVLHIDTQRCNISWKVSQVSHYIEPYLEFEARRRLLGHSWEDASVLSLKQRQQWLFLEMLIPSTSYEVQVRVKAQRNNTGTWSPWSQPLTFRTRPADPMKE

Columns and labels:
[1] = molecular target: T1, γc extracellular domain (UniProt P34902 23-263); test: SPR
T1 sequence (looked up): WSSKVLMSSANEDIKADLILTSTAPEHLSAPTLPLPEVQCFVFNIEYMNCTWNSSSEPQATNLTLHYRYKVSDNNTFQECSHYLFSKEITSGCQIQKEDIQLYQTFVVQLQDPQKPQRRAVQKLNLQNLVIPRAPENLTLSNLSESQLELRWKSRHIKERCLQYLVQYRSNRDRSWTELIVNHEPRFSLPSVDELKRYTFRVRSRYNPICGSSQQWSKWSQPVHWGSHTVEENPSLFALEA

[2] = molecular target: T1, γc extracellular domain; test: SPR; remark: listed apart in the source

Binder | Kd [1] [µM] | koff [1] [s⁻¹] | kon [1] [M⁻¹ s⁻¹] | Kd [2] [µM]
B1 | 0.0373 ± 0.0004 | 0.000221 | 5930 | 
B2 |  |  |  | 577 ± 40

From article PMC7424196 (iScience, 2020)
